The target in this test is H6 hERG 666–872 Flag (human, UniProt Q12809 666-872). In words: pull-down.
H6 hERG 666–872 Flag, sequence (Q12809 666-872): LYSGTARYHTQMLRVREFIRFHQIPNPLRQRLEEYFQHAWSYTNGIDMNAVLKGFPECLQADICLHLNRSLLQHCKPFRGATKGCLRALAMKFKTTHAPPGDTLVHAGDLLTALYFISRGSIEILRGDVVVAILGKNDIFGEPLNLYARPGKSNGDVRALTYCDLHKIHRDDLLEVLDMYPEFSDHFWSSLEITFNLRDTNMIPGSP

B1: GST N1–135 (domain or fragment, human, UniProt Q12809 1-135, looked up)
chain: MPVRRGHVAPQNTFLDTIIRKFEGQSRKFIIANARVENCAVIYCNDGFCELCGYSRAEVMQRPCTCDFLHGPRTQRRAAAQIAQALLGAEERKVEIAFYRKDGSCFLCLVDVVPVKNEDGAVIMFILNFEVVMEK
Take B1: the binding result is given as “binds”.

The record behind these values is paper PMC3047612 (The Journal of General Physiology, 2011).
